Measured values reported in the supplement of paper PMC9112550, “Optimization of the antimicrobial peptide Bac7 by deep mutational scanning” (BMC Biology, 2022).

test system: Escherichia coli TOP10; assay: shrunken log2 fold change of peptide-encoding DNA abundance (4.5 h post-induction vs induction); higher = less antimicrobial activity (less host growth inhibition); details: time post-induction: 4.5 h; library: site-saturation at positions 5, 18, 19, 20
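Further: peptides expressed intracellularly from a pBAD plasmid library in pooled LB shake-flask culture, induced with 0.3% L-arabinose, DNA abundance read by NGS, three biological replicates, DESeq2 with apeglm shrinkage.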

Sequence | shrunken log2 fold change
RRIRGRPPRLPRPRPRPALDPRP | 1.4
RRIRYRPPRLPRPRPRPFSQPRP | 0.0654
RRIRVRPPRLPRPRPRPIDPPRP | -0.0131
RRIRKRPPRLPRPRPRPVSAPRP | 0.887
RRIRERPPRLPRPRPRPLYEPRP | -1.24
RRIRPRPPRLPRPRPRPIFNPRP | -0.238
RRIRPRPPRLPRPRPRPFLTPRP | -0.254
RRIRDRPPRLPRPRPRPPCHPRP | -0.363
RRIRLRPPRLPRPRPRPQLDPRP | 0.0655
RRIRHRPPRLPRPRPRPLKLPRP | 0.0187
RRIRWRPPRLPRPRPRPICTPRP | 0.537
RRIRCRPPRLPRPRPRPWRGPRP | 0.185
RRIRNRPPRLPRPRPRPPAHPRP | 0.626
RRIRWRPPRLPRPRPRPIKWPRP | -0.18
RRIRDRPPRLPRPRPRPKVDPRP | -0.118
RRIRHRPPRLPRPRPRPVPFPRP | -0.136
RRIRIRPPRLPRPRPRPMQKPRP | 0.0387
RRIRMRPPRLPRPRPRPQLIPRP | -0.0368
RRIRCRPPRLPRPRPRPRKVPRP | 0.196
RRIRVRPPRLPRPRPRPMSNPRP | 0.0709

Sequence | shrunken log2 fold change
RRIRIRPPRLPRPRPRPWLRPRP | -0.358
RRIRHRPPRLPRPRPRPGSHPRP | -0.226
RRIRARPPRLPRPRPRPRSMPRP | 0.42
RRIRKRPPRLPRPRPRPSWEPRP | 0.153
RRIRNRPPRLPRPRPRPDFDPRP | -0.0771
RRIRSRPPRLPRPRPRPHCGPRP | -0.0953
RRIRDRPPRLPRPRPRPQWTPRP | 0.448
RRIRHRPPRLPRPRPRPIQFPRP | -0.482
RRIRRRPPRLPRPRPRPGILPRP | -0.174
RRIRKRPPRLPRPRPRPWRAPRP | 0.5
RRIRPRPPRLPRPRPRPQPSPRP | 0.641
RRIRNRPPRLPRPRPRPPDHPRP | 0.0887
RRIRLRPPRLPRPRPRPNDDPRP | -0.248
RRIRVRPPRLPRPRPRPLYDPRP | -0.257
RRIRSRPPRLPRPRPRPMDNPRP | -0.0175
RRIRPRPPRLPRPRPRPQTPPRP | 0.313
RRIRLRPPRLPRPRPRPSAGPRP | -0.0364
RRIRYRPPRLPRPRPRPKAAPRP | 0.067
RRIRNRPPRLPRPRPRPYCIPRP | -0.177
RRIRARPPRLPRPRPRPKTDPRP | 0.876

Sequence | shrunken log2 fold change
RRIRQRPPRLPRPRPRPTQCPRP | -0.343
RRIRERPPRLPRPRPRPWSLPRP | -0.0112
RRIRARPPRLPRPRPRPDEKPRP | 0.447
RRIRYRPPRLPRPRPRPMYSPRP | -0.018
RRIRNRPPRLPRPRPRPDAGPRP | 0.391
RRIRYRPPRLPRPRPRPKPLPRP | 0.276
RRIRCRPPRLPRPRPRPLEYPRP | -0.0414
RRIRGRPPRLPRPRPRPENVPRP | 0.328
RRIRGRPPRLPRPRPRPLVFPRP | 0.455
RRIRIRPPRLPRPRPRPCPRPRP | -0.185
RRIRLRPPRLPRPRPRPRLNPRP | -0.0854
RRIRIRPPRLPRPRPRPFCNPRP | -0.553
RRIRVRPPRLPRPRPRPGLKPRP | 0.049
RRIRKRPPRLPRPRPRPPRFPRP | 0.733
RRIRRRPPRLPRPRPRPQDLPRP | 0.0389
RRIRMRPPRLPRPRPRPEQGPRP | 0.493
RRIRLRPPRLPRPRPRPLLQPRP | 0.138
RRIRPRPPRLPRPRPRPEETPRP | -0.131
RRIRRRPPRLPRPRPRPMYTPRP | -0.219
RRIRWRPPRLPRPRPRPQDMPRP | -0.199
